This passage reports yeast ELISA signal normalized to myc expression level, IC50 of growth inhibition (CellTiterGlo, 5 days) of NCI-H292 cells, -Gas6 and IC50 of growth inhibition of NCI-H292 cells, +Gas6 (2 µg/mL) results from patent US20240076389A1.

Test [1] concerns the target huAXL-ECD displayed on yeast (human) (UniProt P30530). Description: yeast surface display ELISA, non-denatured yeast, goat anti-human F(ab')2-HRP. On the technique in general: ELISA stands for enzyme-linked immunosorbent assay.
In test [2] the target is human AXL expressed on the cell surface of tumor cell lines (human) (UniProt P30530). Description: cell-based or functional assay.
Sequence of human AXL expressed on the cell surface of tumor cell lines (human) (P30530 26-894): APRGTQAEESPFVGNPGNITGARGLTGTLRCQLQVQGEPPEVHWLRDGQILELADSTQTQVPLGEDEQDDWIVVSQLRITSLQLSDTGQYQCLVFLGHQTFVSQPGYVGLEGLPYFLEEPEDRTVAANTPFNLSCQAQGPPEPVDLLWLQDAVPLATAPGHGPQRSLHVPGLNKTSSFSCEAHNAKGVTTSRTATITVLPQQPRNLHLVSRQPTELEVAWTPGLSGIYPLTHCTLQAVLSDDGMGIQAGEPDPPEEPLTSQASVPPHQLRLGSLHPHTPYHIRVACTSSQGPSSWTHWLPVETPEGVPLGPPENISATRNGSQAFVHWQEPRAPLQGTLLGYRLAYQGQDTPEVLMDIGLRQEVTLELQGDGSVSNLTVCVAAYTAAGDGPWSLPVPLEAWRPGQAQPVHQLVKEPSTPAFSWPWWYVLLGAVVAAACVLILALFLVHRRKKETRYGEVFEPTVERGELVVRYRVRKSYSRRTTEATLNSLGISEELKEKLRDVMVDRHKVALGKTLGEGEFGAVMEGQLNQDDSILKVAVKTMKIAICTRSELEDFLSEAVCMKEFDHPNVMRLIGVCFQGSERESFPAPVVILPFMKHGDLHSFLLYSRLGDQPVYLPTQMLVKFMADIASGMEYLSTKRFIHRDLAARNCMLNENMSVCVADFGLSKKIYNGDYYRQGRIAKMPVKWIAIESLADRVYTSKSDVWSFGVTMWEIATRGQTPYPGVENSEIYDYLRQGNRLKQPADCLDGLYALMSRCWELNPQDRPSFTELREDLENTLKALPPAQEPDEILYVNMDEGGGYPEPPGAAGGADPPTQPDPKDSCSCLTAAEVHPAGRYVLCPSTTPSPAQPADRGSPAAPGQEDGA

Sequence of huAXL-ECD displayed on yeast (human) (P30530 26-449, form in doubt): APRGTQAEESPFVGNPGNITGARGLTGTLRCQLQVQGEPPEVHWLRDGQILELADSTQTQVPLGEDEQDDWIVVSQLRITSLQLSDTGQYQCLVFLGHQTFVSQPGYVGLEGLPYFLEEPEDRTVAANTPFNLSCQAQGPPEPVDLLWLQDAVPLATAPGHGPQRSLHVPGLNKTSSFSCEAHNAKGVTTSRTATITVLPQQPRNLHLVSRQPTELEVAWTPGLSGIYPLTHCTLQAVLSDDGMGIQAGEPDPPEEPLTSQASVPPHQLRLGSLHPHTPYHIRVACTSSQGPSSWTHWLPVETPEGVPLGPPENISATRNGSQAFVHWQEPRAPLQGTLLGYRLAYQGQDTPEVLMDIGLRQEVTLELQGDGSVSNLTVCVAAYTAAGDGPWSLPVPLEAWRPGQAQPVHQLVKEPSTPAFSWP

B1: NRC-sdAb002-Fc (VHH-human IgG1 Fc fusion) (Fc fusion, not shown: a dimerising Fc or GST)
chain: QVQLVDSGGGLVQAGGSLRLSCATSTRTVSSAVMAWFRQAPEKVRDFVGFITNSGNILYDDSVKGRFTISRDNAQNTVYLQMNSLKPEDTAVYYCAAKWSFSSGYGDLRRAAMYDYWGQGTQVTVSS
In test [1], B1 had a yeast ELISA signal normalized to myc expression level of 0.882.

B2: hFc-sdAb008-DM1 (Fc fusion, not shown: a dimerising Fc or GST)
chain: QVKLEESGGGLVQAGGSLRLSCAASGSSGMINTMGWYRQAPGKQRELVARRSTGGTTNYADSVKGRFTISRDDANNTVYLQMNSLKPEDTAVYYCAIIWRTSDLTGRFNTWGQGTQVTVSS
modifications: DM1 conjugate (SMCC linker); sites not given
In test [2], B2 gave an IC50 of growth inhibition (CellTiterGlo, 5 days) of NCI-H292 cells, -Gas6 of 0.034 nM and an IC50 of growth inhibition of NCI-H292 cells, +Gas6 (2 µg/mL) of 0.24 nM.

B3: hFc-sdAb006-DM1 (Fc fusion, not shown: a dimerising Fc or GST)
chain: QVKLEESGGGLVQAGASLRLSCVASESIFGFNTMGWYRQAPGNERELVASISNSKRTMYADSVKGRFTISRDNAKNTVNLQMNNLKPEDTAVYYCRAWGIITSATVYWGQGTQVTVSS
modifications: DM1 conjugate (SMCC linker); sites not given
In the case of B3, in test [2], the IC50 of growth inhibition (CellTiterGlo, 5 days) of NCI-H292 cells, -Gas6 came to 2.71 nM.

B4: NRC-sdAb003-Fc (VHH-human IgG1 Fc fusion) (Fc fusion, not shown: a dimerising Fc or GST)
chain: QVQLVESGGGLVQAGGSLRLSCAASGVTLDYTAIGWFRQAPGKERELVAAITSGGNTDYAESAKGRFRISRDNSKNTIYLQMNSLKPEDTGVYYCAARRGGARGEYDYWDQGTQVTVSS
The molecule B4 displayed a yeast ELISA signal normalized to myc expression level in test [1] of 0.659.

B5: hFc-sdAb001-DM1 (Fc fusion, not shown: a dimerising Fc or GST)
chain: QVKLEESGGGLVQAGGSLRLSCTASASISSFDIMGWYRQAPGKQRELVAAITTLDIANYRDSVKGRFTISRDNAKNTVYLQMDSLKPEDTARYHCAAFQSDQNYWGQGTQVTVSS
modifications: DM1 conjugate (SMCC linker); sites not given
B5 gave an IC50 of growth inhibition (CellTiterGlo, 5 days) of NCI-H292 cells, -Gas6 in test [2] of 0.887 nM.

B6: NRC-sdAb001-Fc (VHH-human IgG1 Fc fusion) (Fc fusion, not shown: a dimerising Fc or GST)
chain: QVKLEESGGGLVQAGGSLRLSCTASASISSFDIMGWYRQAPGKQRELVAAITTLDIANYRDSVKGRFTISRDNAKNTVYLQMDSLKPEDTARYHCAAFQSDQNYWGQGTQVTVSS
B6 gave a yeast ELISA signal normalized to myc expression level in test [1] of 1.03.

B7: hFC-F107-10G1 (antibody, human IgG1, kappa, V domains shown)
VH: EVNLVESGGGVVKPGASLKLSCEASGFTFSNYGMSWVRQTSDKRLEWVASISGGGGRTYYLDNVKGRFIISRENAKNTLYLQMSSLKSEDTALFYCARGARASYFAMDYWGQGSSVTVSS
VL: VIVMTQSHKFMSTSVGDRVSITCKASQDVTTAVAWYQQKPGQSPKLLIYWASTRHTGVPDRFTGSGSGTDYSLTISNVQTEDLAFYYCQQHFTTPLTFGAGTKLELKR
On to B7, for which the yeast ELISA signal normalized to myc expression level in test [1] turned out to be 1.39.

B8: hFc-sdAb005-DM1 (Fc fusion, not shown: a dimerising Fc or GST)
chain: QVKLEESGGGLAQAGGSLRLSCAASGSISSINTIGWFRQAPGKQRELVAASDSGANRNYADSVKGRFTISRDNAKNTVYLQMNNLKPEDTAIYYCRAWGTGTISTMYWGQGTQVTVSS
modifications: DM1 conjugate (SMCC linker); sites not given
As to B8, in test [2], the IC50 of growth inhibition (CellTiterGlo, 5 days) of NCI-H292 cells, -Gas6 amounted to 6.66 nM and the IC50 of growth inhibition of NCI-H292 cells, +Gas6 (2 µg/mL) stood at 3.78 nM.
